Experimental data reported in publication PMC8081924 (The Journal of Biological Chemistry, 2021).
Several values for one entry are separate records, joined by “and”; a condition that tells them apart may be missing. Identical values can stand only once. Like-named read-outs stand apart in the source and are kept apart here.

B1: sPHGDH (catalytic unit of human D-3-phosphoglycerate dehydrogenase, 1-307), wild type (domain or fragment, UniProt O43175 1-307, looked up)
chain: MAFANLRKVLISDSLDPCCRKILQDGGLQVVEKQNLSKEELIAELQDCEGLIVRSATKVTADVINAAEKLQVVGRAGTGVDNVDLEAATRKGILVMNTPNGNSLSAAELTCGMIMCLARQIPQATASMKDGKWERKKFMGTELNGKTLGILGLGRIGREVATRMQSFGMKTIGYDPIISPEVSASFGVQQLPLEEIWPLCDFITVHTPLLPSTTGLLNDNTFAQCKKGVRVVNCARGGIVDEGALLRALQSGQCAGAALDVFTEEPPRDRALVDHENVISCPHLGASTKEAQSRCGEEIAVQFVDMV
B2: sPHGDH R236E (domain or fragment, human, UniProt O43175 1-307, looked up)
chain: MAFANLRKVLISDSLDPCCRKILQDGGLQVVEKQNLSKEELIAELQDCEGLIVRSATKVTADVINAAEKLQVVGRAGTGVDNVDLEAATRKGILVMNTPNGNSLSAAELTCGMIMCLARQIPQATASMKDGKWERKKFMGTELNGKTLGILGLGRIGREVATRMQSFGMKTIGYDPIISPEVSASFGVQQLPLEEIWPLCDFITVHTPLLPSTTGLLNDNTFAQCKKGVRVVNCAEGGIVDEGALLRALQSGQCAGAALDVFTEEPPRDRALVDHENVISCPHLGASTKEAQSRCGEEIAVQFVDMV
B3: sPHGDH R135A (domain or fragment, human, UniProt O43175 1-307, looked up)
chain: MAFANLRKVLISDSLDPCCRKILQDGGLQVVEKQNLSKEELIAELQDCEGLIVRSATKVTADVINAAEKLQVVGRAGTGVDNVDLEAATRKGILVMNTPNGNSLSAAELTCGMIMCLARQIPQATASMKDGKWEAKKFMGTELNGKTLGILGLGRIGREVATRMQSFGMKTIGYDPIISPEVSASFGVQQLPLEEIWPLCDFITVHTPLLPSTTGLLNDNTFAQCKKGVRVVNCARGGIVDEGALLRALQSGQCAGAALDVFTEEPPRDRALVDHENVISCPHLGASTKEAQSRCGEEIAVQFVDMV
B4: sPHGDH R135W (domain or fragment, human, UniProt O43175 1-307, looked up)
chain: MAFANLRKVLISDSLDPCCRKILQDGGLQVVEKQNLSKEELIAELQDCEGLIVRSATKVTADVINAAEKLQVVGRAGTGVDNVDLEAATRKGILVMNTPNGNSLSAAELTCGMIMCLARQIPQATASMKDGKWEWKKFMGTELNGKTLGILGLGRIGREVATRMQSFGMKTIGYDPIISPEVSASFGVQQLPLEEIWPLCDFITVHTPLLPSTTGLLNDNTFAQCKKGVRVVNCARGGIVDEGALLRALQSGQCAGAALDVFTEEPPRDRALVDHENVISCPHLGASTKEAQSRCGEEIAVQFVDMV
B5: full-length human D-3-phosphoglycerate dehydrogenase (PHGDH, 1-533), wild type (enzyme, UniProt O43175 1-533, looked up)
chain: MAFANLRKVLISDSLDPCCRKILQDGGLQVVEKQNLSKEELIAELQDCEGLIVRSATKVTADVINAAEKLQVVGRAGTGVDNVDLEAATRKGILVMNTPNGNSLSAAELTCGMIMCLARQIPQATASMKDGKWERKKFMGTELNGKTLGILGLGRIGREVATRMQSFGMKTIGYDPIISPEVSASFGVQQLPLEEIWPLCDFITVHTPLLPSTTGLLNDNTFAQCKKGVRVVNCARGGIVDEGALLRALQSGQCAGAALDVFTEEPPRDRALVDHENVISCPHLGASTKEAQSRCGEEIAVQFVDMVKGKSLTGVVNAQALTSAFSPHTKPWIGLAEALGTLMRAWAGSPKGTIQVITQGTSLKNAGNCLSPAVIVGLLKEASKQADVNLVNAKLLVKEAGLNVTTSHSPAAPGEQGFGECLLAVALAGAPYQAVGLVQGTTPVLQGLNGAVFRPEVPLRRDLPLLLFRTQTSDPAMLPTMIGLLAEAGVRLLSYQTSLVSDGETWHVMGISSLLPSLEAWKQHVTEAFQFHF
B6: full-length PHGDH E108A (enzyme, human, UniProt O43175 1-533, looked up)
chain: MAFANLRKVLISDSLDPCCRKILQDGGLQVVEKQNLSKEELIAELQDCEGLIVRSATKVTADVINAAEKLQVVGRAGTGVDNVDLEAATRKGILVMNTPNGNSLSAAALTCGMIMCLARQIPQATASMKDGKWERKKFMGTELNGKTLGILGLGRIGREVATRMQSFGMKTIGYDPIISPEVSASFGVQQLPLEEIWPLCDFITVHTPLLPSTTGLLNDNTFAQCKKGVRVVNCARGGIVDEGALLRALQSGQCAGAALDVFTEEPPRDRALVDHENVISCPHLGASTKEAQSRCGEEIAVQFVDMVKGKSLTGVVNAQALTSAFSPHTKPWIGLAEALGTLMRAWAGSPKGTIQVITQGTSLKNAGNCLSPAVIVGLLKEASKQADVNLVNAKLLVKEAGLNVTTSHSPAAPGEQGFGECLLAVALAGAPYQAVGLVQGTTPVLQGLNGAVFRPEVPLRRDLPLLLFRTQTSDPAMLPTMIGLLAEAGVRLLSYQTSLVSDGETWHVMGISSLLPSLEAWKQHVTEAFQFHF
B7: full-length PHGDH R119A (enzyme, human, UniProt O43175 1-533, looked up)
chain: MAFANLRKVLISDSLDPCCRKILQDGGLQVVEKQNLSKEELIAELQDCEGLIVRSATKVTADVINAAEKLQVVGRAGTGVDNVDLEAATRKGILVMNTPNGNSLSAAELTCGMIMCLAAQIPQATASMKDGKWERKKFMGTELNGKTLGILGLGRIGREVATRMQSFGMKTIGYDPIISPEVSASFGVQQLPLEEIWPLCDFITVHTPLLPSTTGLLNDNTFAQCKKGVRVVNCARGGIVDEGALLRALQSGQCAGAALDVFTEEPPRDRALVDHENVISCPHLGASTKEAQSRCGEEIAVQFVDMVKGKSLTGVVNAQALTSAFSPHTKPWIGLAEALGTLMRAWAGSPKGTIQVITQGTSLKNAGNCLSPAVIVGLLKEASKQADVNLVNAKLLVKEAGLNVTTSHSPAAPGEQGFGECLLAVALAGAPYQAVGLVQGTTPVLQGLNGAVFRPEVPLRRDLPLLLFRTQTSDPAMLPTMIGLLAEAGVRLLSYQTSLVSDGETWHVMGISSLLPSLEAWKQHVTEAFQFHF
B8: full-length PHGDH G140R (enzyme, human, UniProt O43175 1-533, looked up)
chain: MAFANLRKVLISDSLDPCCRKILQDGGLQVVEKQNLSKEELIAELQDCEGLIVRSATKVTADVINAAEKLQVVGRAGTGVDNVDLEAATRKGILVMNTPNGNSLSAAELTCGMIMCLARQIPQATASMKDGKWERKKFMRTELNGKTLGILGLGRIGREVATRMQSFGMKTIGYDPIISPEVSASFGVQQLPLEEIWPLCDFITVHTPLLPSTTGLLNDNTFAQCKKGVRVVNCARGGIVDEGALLRALQSGQCAGAALDVFTEEPPRDRALVDHENVISCPHLGASTKEAQSRCGEEIAVQFVDMVKGKSLTGVVNAQALTSAFSPHTKPWIGLAEALGTLMRAWAGSPKGTIQVITQGTSLKNAGNCLSPAVIVGLLKEASKQADVNLVNAKLLVKEAGLNVTTSHSPAAPGEQGFGECLLAVALAGAPYQAVGLVQGTTPVLQGLNGAVFRPEVPLRRDLPLLLFRTQTSDPAMLPTMIGLLAEAGVRLLSYQTSLVSDGETWHVMGISSLLPSLEAWKQHVTEAFQFHF
B9: full-length PHGDH I121A (enzyme, human, UniProt O43175 1-533, looked up)
chain: MAFANLRKVLISDSLDPCCRKILQDGGLQVVEKQNLSKEELIAELQDCEGLIVRSATKVTADVINAAEKLQVVGRAGTGVDNVDLEAATRKGILVMNTPNGNSLSAAELTCGMIMCLARQAPQATASMKDGKWERKKFMGTELNGKTLGILGLGRIGREVATRMQSFGMKTIGYDPIISPEVSASFGVQQLPLEEIWPLCDFITVHTPLLPSTTGLLNDNTFAQCKKGVRVVNCARGGIVDEGALLRALQSGQCAGAALDVFTEEPPRDRALVDHENVISCPHLGASTKEAQSRCGEEIAVQFVDMVKGKSLTGVVNAQALTSAFSPHTKPWIGLAEALGTLMRAWAGSPKGTIQVITQGTSLKNAGNCLSPAVIVGLLKEASKQADVNLVNAKLLVKEAGLNVTTSHSPAAPGEQGFGECLLAVALAGAPYQAVGLVQGTTPVLQGLNGAVFRPEVPLRRDLPLLLFRTQTSDPAMLPTMIGLLAEAGVRLLSYQTSLVSDGETWHVMGISSLLPSLEAWKQHVTEAFQFHF

How the values were obtained:
[1] = biological target: the molecule itself
AUC [2] = biological target: the molecule itself; assay: AUC
O43175 = assay: AUC
AUC [3] = biological target: the molecule itself; assay: AUC; remark: listed apart in the source
[4] = biological target: the molecule itself; assay: cell-based or functional assay
AUC [5] = biological target: the molecule itself; assay: AUC; remark: listed apart in the source
AUC [6] = biological target: the molecule itself; assay: AUC; remark: listed apart in the source

Row | Protein | stoichiometry N (AUC [3]) | stoichiometry N (AUC [6]) | also measured
1 | B1 |  |  | Kd [1]: 580 nM; stoichiometry N (AUC [2]): 2; total concentration at which the dimer and monomer peak ratio is 1:1 (O43175): the 1:1 ratio at about 1 μM
2 | B2 | 2 |  | 
3 | B3 | 2 |  | enzyme activity of the sPHGDH mutant at 2.4 μM against WT [4]: ~80 % of WT
4 | B4 | 2 |  | 
5 | B5 |  |  | stoichiometry N (AUC [5]): 2 and 4
6 | B6 |  | 2 | 
7 | B7 |  | 2 | 
8 | B8 |  | 2 | 
9 | B9 |  | 2 | 
